Measurements reported in patent publication US20140112926A1.

Key:
[1] = target: GST-tagged version of human FcγRIIIA (human) (UniProt P08637); assay: AlphaLISA vs biotin-huIgG, supernatant, round 1
[2] = target: GST-tagged version of human FcγRIIIA (human) (UniProt P08637); assay: AlphaLISA vs biotin-huIgG, supernatant, round 2
[3] = target: GST-tagged version of human FcγRIIIA (human) (UniProt P08637); assay: AlphaLISA vs biotin-huIgG, supernatant, round 3

Chain of GST-tagged version of human FcγRIIIA (human) (P08637 17-208 limits assumed): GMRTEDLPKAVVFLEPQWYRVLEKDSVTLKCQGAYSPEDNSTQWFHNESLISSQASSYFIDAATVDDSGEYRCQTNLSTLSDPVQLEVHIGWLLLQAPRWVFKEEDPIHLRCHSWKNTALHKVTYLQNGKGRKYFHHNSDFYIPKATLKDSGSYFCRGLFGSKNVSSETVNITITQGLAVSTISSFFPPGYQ

Row | Substance | % inhibition [1] [%] | Alpha signal [1] | % inhibition [2] [%] | Alpha signal [2] | % inhibition [3] [%] | Alpha signal [3]
1 | scFv-Fc/Fc, A287F in scFv-Fc (from UniProt P0DOX5 218-449; P0DOX5 218-449) (Fc fusion) | 47.5 | 39900 | 58.4 | 33500 | 67.6 | 25500
2 | scFv-Fc/Fc, A330M in scFv-Fc (Fc fusion) | 27.1 | 55400 | 36.6 | 51000 | 26.2 | 58000
3 | scFv-Fc/Fc, A330V in dummy Fc (Fc fusion) | 25.8 | 56400 | 32.7 | 54100 | 25.6 | 58400
4 | scFv-Fc/Fc, A339T in dummy Fc (Fc fusion) | 25.8 | 56400 | 27.3 | 58400 | 36.6 | 49800
5 | scFv-Fc/Fc, E258S in dummy Fc (Fc fusion) | 20.6 | 60300 | 28 | 57900 | 21.6 | 61600
6 | scFv-Fc/Fc, E258V in scFv-Fc (from UniProt P0DOX5 218-449; P0DOX5 218-449) (Fc fusion) | 69.3 | 23300 | 75.8 | 19500 | 71.5 | 22400
7 | scFv-Fc/Fc, E294L in dummy Fc (Fc fusion) |  | 30100 |  | 35400 |  | 32200
8 | scFv-Fc/Fc, E294L in scFv-Fc (Fc fusion) |  | 24300 |  | 22900 | 76.8 | 18200
9 | scFv-Fc/Fc, F243I in dummy Fc (Fc fusion) | 60.8 | 29800 |  | 25800 |  | 23800
10 | scFv-Fc/Fc, F243I in scFv-Fc (Fc fusion) | 60.6 | 30000 | 73.1 | 21700 | 72.8 | 21400
11 | scFv-Fc/Fc, F243L in dummy Fc (Fc fusion) | 72.9 | 20600 | 77.4 | 18200 | 76.1 | 18800
12 | scFv-Fc/Fc, F243L in scFv-Fc (Fc fusion) | 39.4 |  | 28.6 | 57400 | 29.7 | 55200
13 | scFv-Fc/Fc, F243M in dummy Fc (Fc fusion) | 43.3 | 43100 | 53.1 | 37700 | 58.7 | 32400
14 | scFv-Fc/Fc, F243V + S239T in dummy Fc (Fc fusion) | 84.8 | 11600 | 83 | 13700 | 84.1 | 12500
15 | scFv-Fc/Fc, F243V in dummy Fc (Fc fusion) | 49 | 38800 | 60.1 | 32100 | 62.8 | 29300
16 | scFv-Fc/Fc, F243V in scFv-Fc (Fc fusion) | 45.1 | 41700 | 47.7 | 42100 | 48.6 | 40400
17 | scFv-Fc/Fc, G236Y in scFv-Fc (Fc fusion) | 15 | 64600 | 23.2 | 61700 | 20.9 | 62200

Row | Substance | % inhibition [1] [%] | Alpha signal [1] | % inhibition [2] [%] | Alpha signal [2] | % inhibition [3] [%] | Alpha signal [3]
18 | scFv-Fc/Fc, H268E in scFv-Fc (from UniProt P0DOX5 218-449; P0DOX5 218-449) (Fc fusion) |  | 54800 |  | 56600 |  | 57100
19 | scFv-Fc/Fc, H268K in scFv-Fc (from UniProt P0DOX5 218-449; P0DOX5 218-449) (Fc fusion) | 20.2 | 60600 | 22.6 | 62200 | 21.6 | 61600
20 | scFv-Fc/Fc, I253K in scFv-Fc (Fc fusion) | 24.5 | 57400 | 35.2 | 52100 | 34.7 | 51300
21 | scFv-Fc/Fc, I253V in dummy Fc (Fc fusion) | 23 | 58500 | 23.5 | 61500 | 25.7 | 58400
22 | scFv-Fc/Fc, I332E in dummy Fc (Fc fusion) | 85.8 | 10800 | 87.7 | 9880 | 85.3 | 11500
23 | scFv-Fc/Fc, I332E in scFv-Fc (Fc fusion) | 75.1 | 18900 | 74.6 | 20400 | 76.5 | 18400
24 | scFv-Fc/Fc, K246E in dummy Fc (Fc fusion) | 22.4 | 58900 | 22.2 | 62600 | 32.1 | 53300
25 | scFv-Fc/Fc, K246S in dummy Fc (Fc fusion) | 40.6 | 45100 | 47.3 | 42400 | 51.8 | 37900
26 | scFv-Fc/Fc, K246V in dummy Fc (Fc fusion) |  | 43800 |  | 44500 |  | 42800
27 | scFv-Fc/Fc, K246W in dummy Fc (Fc fusion) | 20 | 60800 | 29 | 57100 | 34.2 | 51700
28 | scFv-Fc/Fc, K248L in dummy Fc (Fc fusion) | 67.5 | 24700 | 71.3 | 23100 | 68.4 | 24800
29 | scFv-Fc/Fc, K248Y in dummy Fc (Fc fusion) | 31.5 | 52100 | 36.5 | 51000 | 40.2 | 47000
30 | scFv-Fc/Fc, K288I in scFv-Fc (from UniProt P0DOX5 218-449; P0DOX5 218-449) (Fc fusion) | 25.8 | 56400 |  | 57500 |  | 57300
31 | scFv-Fc/Fc, K288T in dummy Fc (Fc fusion) | 26.7 | 55700 |  | 53100 |  | 50300
32 | scFv-Fc/Fc, K290F in dummy Fc (Fc fusion) | 23.1 | 58500 | 31.1 | 55400 | 23.5 | 60100
33 | scFv-Fc/Fc, T307G in scFv-Fc (Fc fusion) |  | 32500 |  |  | 51 | 
